Test results reported in PMC7064531 (2020).
Blank lines part the entries; values can stand above or below the binder they belong to. Where no end group is shown, it is not given here. [ ]: non-standard residue; d: D form. pY = N[C@@H](Cc1ccc(OP(=O)(O)O)cc1)C(=O)O

Legend:
[1] = target: T1, E6AP AZUL (amino-terminal zinc-binding domain of ubiquitin E3a ligase), amino acids 24 to 87 (human, UniProt Q05086 24-87); assay: ITC
T1 chain: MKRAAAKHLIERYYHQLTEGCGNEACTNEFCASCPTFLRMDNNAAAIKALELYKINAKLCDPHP

[2] = target: T1, E6AP AZUL (amino-terminal zinc-binding …); assay: ITC
[3] = target: T1, E6AP AZUL (amino-terminal zinc-binding …); assay: SPR
[4] = target: T1, E6AP AZUL (amino-terminal zinc-binding …); assay: ITC; Y326 phosphorylated
[5] = target: T1, E6AP AZUL (amino-terminal zinc-binding …); assay: ITC; Y326 phosphorylated

Kd [1]: 18.2 nM
Kd [2]: 18.2 nM
Binder: EEDDYDVMQDPEFLQSVLENLPGVDPNNEAIRNAMGSLASQATKD [hRpn10^322–366 peptide]

koff [3]: 0.0211 s⁻¹
B1: GST-hRpn10^305–377 (domain or fragment)
chain: SADIDASSAMDTSEPAKEEDDYDVMQDPEFLQSVLENLPGVDPNNEAIRNAMGSLASQATKDGKKDKKEEDKK

Kd [4]: 189 nM
Kd [5]: 189 nM
Binder: EEDD[pY]DVMQDPEFLQSVLENLPGVDPNNEAIRNAMGSLASQATKD (not fully specified) [hRpn10^322–366 peptide with Y326 phosphorylated]
